Assay results from the RNAGym collection of RNA variant scans (doi:10.1073/pnas.2313332121).

B1: TPR t1 (parent)
chain: GACCAAUCUGCCCUCAGAGCUCGAGAACAUCUUCGGAUGCAGAGGAGGCAGGCUUCGGUGGCGCGAUAGCGCCAACGUCCUCAACCUCCAAUGCAUCCCACCACAUGAUGAUGCCUGAAGAGCCUUGGUUUUUUG

Variants of: B1
Assay: polymerase ribozyme fitness, log enrichment relative to wild type (log ratio); higher = more active; in vitro selection for triplet polymerase activity
Summary of the method: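 In triplicate, a single round of in vitro selection was run on each mutant library, PCR-built and transcribed, covering one subunit of a heterodimeric triplet polymerase ribozyme. Frozen incubation at −7 °C followed annealing with a biotinylated primer, partner subunit and triplets, and extended constructs were then gel-excised, streptavidin-captured and taken through RT-PCR. Fitness is the logarithm of genotype enrichment over wild-type enrichment, from inverse-variance-weighted replicate averages of Illumina-sequenced inputs and outputs. […] only genotypes with ≥10 input reads and ≥1 read per output were kept.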

| Variant | polymerase ribozyme fitness (log ratio) |
| --- | --- |
| G45U A84C C86A G117A | -3.94 |
| G45C C114A | -2.66 |
| A46C C86U A95G C114G | -3.71 |
| A46U U59C G93A U130C | -2.04 |
| G45U G93C | -0.927 |
| G45U G93U A100C C104A | -6.03 |
| A46U G63C U112C G117C A121U | -3.75 |
| A46U A121U | 0.389 |
| G45C U126A | -2.8 |
| G45A U81G | -3.71 |
| A46U C104U | -0.991 |
| G47U A95C U96A | -4.33 |
| A46U C124A | 0.552 |
| G47A G135U | -2.25 |
| A46U A103C C115G | -6.95 |
| G47C U54G G58C G69U | 1.13 |
| G47A C86A A90G G117U G120C | -0.329 |
| G45U C73U U87A A105U G135C | -2.69 |
| G45C G69A G117U | -6.59 |
| G45A G107A A121C | -6.43 |
| G47U C114U | -3.33 |

| Variant | polymerase ribozyme fitness (log ratio) |
| --- | --- |
| G47U C114A | -2.77 |
| A46U C64U C99U | -4.36 |
| A46G G60U | -0.448 |
| A46U G135U | -1.71 |
| A46U G135C | -1.33 |
| G45C G51A G63A U78A C123G | -4.51 |
| G47U G48U C79U | -2.83 |
| G47C G77C C98U G113C U130C | -6.15 |
| A46U G52U C123A | -3.01 |
| A46U C49U | -1.49 |
| G47A G71C | -1.56 |
| G47C C123G | -1.31 |
| G45U C86U U87A C124U U130C | -1.19 |
| G47C C89U C124G | -0.507 |
| G47U C49G | -0.991 |
| A46G G69U | 0.473 |
| G45U C56G G77A C101U U112C | 0.372 |
| G47A A50U | -1.57 |
| G47C U55G G71U U106A U129A G135C | -2.24 |
| G47A C73U G117U G135U | -5.34 |
| A46G C53A G135U | -1.55 |

| Variant | polymerase ribozyme fitness (log ratio) |
| --- | --- |
| G47C C86U A105U A121C | -1.01 |
| G45A G61U C70U G110U U125C | -3.2 |
| G45U G135U | -2.03 |
| G47U C88G U96A U112A | -6.98 |
| A46U G61A | 0.101 |
| G47U G71A U87A | -4.27 |
| G47A A90C U112A | -2.17 |
| A46U G77C | -1.54 |
| A46U A91G C123G | -1.65 |
| G45U C56A C73G | -2.79 |
| G47U G117U | -2.78 |
| A46U G71C U78A C86A | -1.63 |
| G47A G48C A100U U112A | -0.897 |
| A46U G69U | -0.372 |
| A46U G69A | -3.54 |
| G45U C53A G61C | -5.95 |
| A46U C82U | -1.14 |
| G45C C49A C76U C102A | -3.88 |
| G45C A84G C97A | -6.72 |
| G47A C124U | 0.0616 |
| G47A A50U G60C G77A | -5 |

| Variant | polymerase ribozyme fitness (log ratio) |
| --- | --- |
| G47A C73A U126A | -2.35 |
| A46U G48U C76A U78C C82U | -5.9 |
| G45A G71A G113A C124U | -2.34 |
| G47C G48A C86U A90U | -2.46 |
| G45U G110U | -2.75 |
| A46C C53U U54G G71U G120U | -0.575 |
| G45U C89U U92A U106A U133G | -3.32 |
| A46G A50G U87C | -0.00584 |
| A46C C102A G120U C123A | -2.45 |
| G47A C53U | -1.23 |
| A46G C124U | 0.675 |
| A46G A74C U133A | -0.745 |
| G47U G51U C73U | -6.37 |
| G47U G61C A111C | -2.97 |
| G45U C56U G122U U129C | -1.59 |
| G47U G61C U126G | -4.45 |
| A46G A50G | 0.425 |
| A46U C62G C88A C124A U133G | -4.11 |
| A46U C79U U96A C115U C123G U132A | -2.94 |
| G47C C70U C89U | -4.18 |
| A46U C62G C88A C124A | -4.36 |
